The labels stand for the following.
B1: TPR t1 (parent)
chain: GACCAAUCUGCCCUCAGAGCUCGAGAACAUCUUCGGAUGCAGAGGAGGCAGGCUUCGGUGGCGCGAUAGCGCCAACGUCCUCAACCUCCAAUGCAUCCCACCACAUGAUGAUGCCUGAAGAGCCUUGGUUUUUUG

Variants of B1 are the subject of the data set. Kind of data set: polymerase ribozyme fitness, log enrichment relative to wild type (log ratio); higher = more active; in vitro selection for triplet polymerase activity. Summed up: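 A heterodimeric triplet polymerase ribozyme had each of its subunits mutagenized by PCR into a library, which was transcribed. One round of in vitro selection, done in triplicate, annealed each library with a biotinylated primer, its partner subunit and triplets, then incubated it frozen at −7 °C before gel excision of extended constructs, streptavidin-bead capture and RT-PCR. Fitness is the logarithm of genotype enrichment relative to wild-type enrichment, based on Illumina sequencing of inputs and outputs and inverse-variance-weighted replicate averages. A base-2 logarithm is used, and genotypes were kept only with ≥10 input reads and ≥1 read per output.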
Regarding C8U U14A G61U C70U C104U C124A G135C, the “polymerase ribozyme fitness (log ratio)” value worked out at 0.783.

On to U7G A43U G47C G58U U59G C82U G110A, for which the “polymerase ribozyme fitness (log ratio)” value is -5.4.

In the case of C97U G113C, the “polymerase ribozyme fitness (log ratio)” value was -2.71.

As for A16C G48A C73U, the “polymerase ribozyme fitness (log ratio)” value was -3.7.

In the case of G39U A41U A43U G60U C82A C114A, the “polymerase ribozyme fitness (log ratio)” value is -4.19.

Take C13G A18G: the “polymerase ribozyme fitness (log ratio)” value was -5.42.

A27U G71U G93U: the “polymerase ribozyme fitness (log ratio)” value is -5.1.

As for C70U A95U A111U G120U, the “polymerase ribozyme fitness (log ratio)” value was -6.23.

In the case of C56G G57C G58A C104A, the “polymerase ribozyme fitness (log ratio)” value is -3.33.

Regarding C11U U96G, the “polymerase ribozyme fitness (log ratio)” value was -1.1.

In the case of C72G C102U, the “polymerase ribozyme fitness (log ratio)” value was -1.53.

As to C89U U92C U112G G127U U130A, the “polymerase ribozyme fitness (log ratio)” value was -3.09.

As for C82G U112G, the “polymerase ribozyme fitness (log ratio)” value is -2.98.

Consider U9A U96G, for which the “polymerase ribozyme fitness (log ratio)” value was -0.342.

Take G44U A121G: the “polymerase ribozyme fitness (log ratio)” value is 0.89.

For U9G G77U C123U, the “polymerase ribozyme fitness (log ratio)” value is 1.93.

Regarding C104A G110U, the “polymerase ribozyme fitness (log ratio)” value was -3.77.

In the case of A5G G71A, the “polymerase ribozyme fitness (log ratio)” value was -0.188.

Turning to C20A G120A, the “polymerase ribozyme fitness (log ratio)” value is -1.89.

With G47U C62U U78C G117C, the “polymerase ribozyme fitness (log ratio)” value was -5.23.

Take A84C U130C: the “polymerase ribozyme fitness (log ratio)” value was -0.28.

Regarding C11G C22G C53G C70U C82U, the “polymerase ribozyme fitness (log ratio)” value was -4.01.

As for C8A A74U, the “polymerase ribozyme fitness (log ratio)” value was -0.0501.

With U9G U59G, the “polymerase ribozyme fitness (log ratio)” value turned out to be 0.701.

For C82G A83C C115G G122A, the “polymerase ribozyme fitness (log ratio)” value was -2.67.

On to G36U G48A C70U C82U U133G, for which the “polymerase ribozyme fitness (log ratio)” value is -1.79.

With A2G G42A U54G C80A U112A, the “polymerase ribozyme fitness (log ratio)” value was -6.02.

For A5U G60C C124U, the “polymerase ribozyme fitness (log ratio)” value is -0.742.

For the variant U7G C101A, the “polymerase ribozyme fitness (log ratio)” value was -0.172.

On to A24U C53G C72U C89A C124A, for which the “polymerase ribozyme fitness (log ratio)” value is -7.6.

C12U G61A U106A C114A: the “polymerase ribozyme fitness (log ratio)” value is -0.698.

C40A G45U: the “polymerase ribozyme fitness (log ratio)” value was -2.77.

With A5G C13G A37G, the “polymerase ribozyme fitness (log ratio)” value is -1.28.

Regarding A50C G61U, the “polymerase ribozyme fitness (log ratio)” value was -0.0844.

U78C G120A: the “polymerase ribozyme fitness (log ratio)” value stood at 0.768.

Turning to C11U U87G G113U, the “polymerase ribozyme fitness (log ratio)” value is -4.06.

Take C8G C53U: the “polymerase ribozyme fitness (log ratio)” value was 0.216.

Consider C34G A83C, for which the “polymerase ribozyme fitness (log ratio)” value is -4.9.

Take G17U C102U: the “polymerase ribozyme fitness (log ratio)” value was -4.64.

As to C15G A37G A66U, the “polymerase ribozyme fitness (log ratio)” value is -5.5.

Turning to C8G C73A, the “polymerase ribozyme fitness (log ratio)” value is 1.91.

As for U59A C70U U87A, the “polymerase ribozyme fitness (log ratio)” value is -1.83.

As to A26G G60U C97U, the “polymerase ribozyme fitness (log ratio)” value was -2.92.

As to C20G C72A U87C G113A U130G, the “polymerase ribozyme fitness (log ratio)” value is -1.05.

Turning to A26G G36U C72G, the “polymerase ribozyme fitness (log ratio)” value was -4.71.

As for C22A G110A, the “polymerase ribozyme fitness (log ratio)” value was -4.72.

On to G61C C102U, for which the “polymerase ribozyme fitness (log ratio)” value was -3.06.

Turning to C3U G10U A41C C115U U126G, the “polymerase ribozyme fitness (log ratio)” value was -6.14.

Regarding C15G C40G C56A, the “polymerase ribozyme fitness (log ratio)” value is -3.88.

For G47U C94G, the “polymerase ribozyme fitness (log ratio)” value is -3.51.

For the variant C11U G77U U112C, the “polymerase ribozyme fitness (log ratio)” value was determined as 1.4.

For the variant G48A U112A U125G G127C, the “polymerase ribozyme fitness (log ratio)” value is -1.12.

With U81C A121G, the “polymerase ribozyme fitness (log ratio)” value turned out to be 0.253.

As for G52U C72G, the “polymerase ribozyme fitness (log ratio)” value came out at 0.452.

C8G G48U G93U U112A C124A: the “polymerase ribozyme fitness (log ratio)” value is -0.874.

Turning to U7G A43U G48U G60C C115A U126A, the “polymerase ribozyme fitness (log ratio)” value is -3.03.

With C79U A91U, the “polymerase ribozyme fitness (log ratio)” value is -2.48.

As to C49A A105C, the “polymerase ribozyme fitness (log ratio)” value was -2.48.

With A91G C104U A118C C123G C124A U126A, the “polymerase ribozyme fitness (log ratio)” value is -0.422.

On to G45U G58A G77A C82A, for which the “polymerase ribozyme fitness (log ratio)” value is -1.74.

Regarding A43U C53U A75G C88A U92C, the “polymerase ribozyme fitness (log ratio)” value was -3.05.

For C64G A121C, the “polymerase ribozyme fitness (log ratio)” value is -5.13.

In the case of C15U A74U A83C A100U U116A, the “polymerase ribozyme fitness (log ratio)” value is -5.53.

For the variant C28U A29G, the “polymerase ribozyme fitness (log ratio)” value is -5.97.

Regarding U9A A26G A50U, the “polymerase ribozyme fitness (log ratio)” value was -1.68.

Take C3U U14C C62U A118G U129C: the “polymerase ribozyme fitness (log ratio)” value was -2.13.

For the variant C20U G48C U54G A74C, the “polymerase ribozyme fitness (log ratio)” value is -3.11.

In the case of G45U C70U A119U G127A, the “polymerase ribozyme fitness (log ratio)” value was -3.74.

With G110A G127A U134C, the “polymerase ribozyme fitness (log ratio)” value is -3.29.

As to C4G C20G G61U G117A, the “polymerase ribozyme fitness (log ratio)” value was -4.76.

Regarding U14G G47C C70U C85G G117A, the “polymerase ribozyme fitness (log ratio)” value is -7.02.

On to G10A G19A C114U U133G, for which the “polymerase ribozyme fitness (log ratio)” value was 0.465.

Take G10C G42C G77A C85A C86G C114A: the “polymerase ribozyme fitness (log ratio)” value was -5.24.

For the variant G10A G48A G52A, the “polymerase ribozyme fitness (log ratio)” value was -1.11.

In the case of C3G G48C C89U U132C, the “polymerase ribozyme fitness (log ratio)” value was -1.66.

As for G52U A121C, the “polymerase ribozyme fitness (log ratio)” value is 1.02.

For G19U A37U, the “polymerase ribozyme fitness (log ratio)” value was -3.17.

In the case of A2U C104A C124U U130A, the “polymerase ribozyme fitness (log ratio)” value is -2.07.

Turning to C15A G39A C53A U125A, the “polymerase ribozyme fitness (log ratio)” value was -3.62.

Turning to U9G C56U C114A C115G, the “polymerase ribozyme fitness (log ratio)” value is -5.74.

As to A6C U30C G69A, the “polymerase ribozyme fitness (log ratio)” value was -5.82.

On to A6G G52U, for which the “polymerase ribozyme fitness (log ratio)” value was -1.27.

Regarding G45U C124A, the “polymerase ribozyme fitness (log ratio)” value was 0.716.

For C12A G19U G42U C70A U92A U112C U129G, the “polymerase ribozyme fitness (log ratio)” value was -5.98.

The values above are taken from the RNAGym collection of RNA variant scans (doi:10.1073/pnas.2313332121).
